# What was measured:
# [1] = system: N9 microglia cells; experiment: Microglia viability, trypan blue; format: cell-based, murine; details: 48 hours of culture
# Description: N9 cells were cultured in Iscove's Modified Dulbecco's MEM, IMDM containing streptomycin/1× penicillin and 2 mM L-glutamine, supplemented with FBS (fetal bovine serum) at 5%. The cells were plated at a concentration of 1.5×10^4 cells/cm2 and kept in a thermostatic incubator at 37° C., with 5% CO2, for 24 hours. The next day, the cells were exposed to different treatments for 48 hours. At the end of the treatments, cell viability was assessed by staining with trypan blue. The microglia was maintained in a basal culture medium and then activated with lipopolysaccharide (LPS), a molecule present on the membrane of the Gram-negative bacteria. Furthermore, to study the role of the product “anti-EPO (C4)” in the inhibition of neuroinflammation and then in the inhibition of the activation of microglia, the antibody according to the scheme below was administered, in association and not with LPS, to activate microglia. […]
# N9 cells were cultured in Iscove's Modified Dulbecco's MEM, IMDM containing streptomycin/1× penicillin and 2 mM L-glutamine, supplemented with FBS (fetal bovine serum) at 5%. […] At the end of the treatments, cell viability and proliferation were assessed by staining with trypan blue and observed under the microscope for counting. […]
# [2] = system: primary anaplastic astrocytoma cells; experiment: MTT cell viability assay; format: cell-based, human; details: 96 hours, anti-EPO (C4) 6 μg/ml, TMZ 100 μM, FTY720 100 nM
# From the text: D. Primary anaplastic astrocytoma cancer stem cells isolated from tumor biopsy of a cohort of patients affected by high grade glioma, in particular, anaplastic astrocytoma (WHO, grade III);
# [3] = system: cancer cells; experiment: Neutralizing anti-EPO bioassay (MTT); format: cell-based; details: nineteen anti-EPO hybridoma culture supernatants compared; 96 h
# Description: The cell-based assay was used to measure the capacity of each clone to neutralize EPO signaling. […] Optical density values (O.D.) were recorded, and neutralizing activity of each clone was expressed as percentage of viability of cells treated with clones respect to control condition, BM (FIG. 1A).The best n=3 final clones were selected and specific monoclonal antibodies were separated and purified in PBS at PH7.4 sterilized by membrane filtration (produced in culture supernatant and purified by Protein A/G). Furthermore, anti-EPO monoclonal antibodies were sequenced by the following protocol: total RNA was extracted separately from several batches of cultured hybridoma cells, cDNA were then synthesized by reverse transcription using oligo-dT primers, and VH and VL were finally amplified by PCR. VH and VL fragments, respectively amplified by IgG degenerate primers and Kappa-specific primers, are represented by gel electrophoresis (FIG. 1B), confirming that isotypes were IgG Kappa.
# [4] = system: SHSY-5Y; experiment: MTT cell viability assay; format: cell-based, human; details: 96 hours, 6 μg/ml
# From the text: K. Neuroblastoma cell line (SHSY-5Y) line is a cell line isolated from a bone marrow biopsy taken from a patient with neuroblastoma. SHSY cells are often used as in vitro models of oncological pathology and neuronal differentiation.
# [5] = system: N9 microglia cells; experiment: Microglia proliferation and morphology after LPS; format: cell-based, murine; details: after LPS stimulation
# Description: N9 microglial cells were seeded in multiwell plates at a concentration of 1.5×10^4 for 24 hours. The following day the cells were administered the following treatments for 24 hours: • LPS; • Anti-EPO (c4) antibody administered alone; • Anti-EPO (c4) antibody in combination with LPS • Anti-EPO (c4) antibody in combination with LPS and FTY720
# N9 cells were detached with enzyme, and an aliquot of known volume was labeled with trypan blue and observed under the microscope for counting. Considering that the number of cells in the culture control, without any treatment, as being 100, the percentage of proliferation of N9 cultured in presence of LPS, anti-EPO (C4) antibody, combination of LPS and anti-EPO antibody was calculated (FIG. 15B).
# N9 cells were cultured in Iscove's Modified Dulbecco's MEM, IMDM containing streptomycin/1× penicillin and 2 mM L-glutamine, supplemented with FBS (fetal bovine serum) at 5%. The cells were plated at a concentration of 1.5×10^4 cells/cm2 and kept in a thermostatic incubator at 37° C., with 5% C02, for 24 hours, as above. The next day, the cells were exposed to different treatments for 48 hours. At the end of the treatments, cell viability and proliferation were assessed by staining with trypan blue and observed under the microscope for counting.
# The microglia were maintained in a basal culture medium and then activated with lipopolysaccharide (LPS). […]
# [6] = system: S1PR1; experiment: S1PR1 expression by immunofluorescence; format: cell-based, human; details: S-ECs of pathological synovium
# Description: ECs (1×10^4/well) were seeded into μ-Slide 8 Well, ibiTreat (Ibidi, Martinsried, Germany) collagen-coated. When cells reached the desired confluence, were fixed in paraformaldehyde 4% for 20 min at RT, washed twice with D-PBS and incubated with 0.1 M glycine to quench auto-fluorescence. Then, the coverslip was incubated with PBS+0.25% Triton ×100 to permeabilize cell membranes and then blocked in PBS+5% BSA for 30 min at RT. Incubation with anti-S1 PR1 primary antibody diluted in blocking buffer was performed overnight at 4° C. The following day, primary antibody was removed and fluorescent secondary antibody labelling was then added for 45 min at RT, protected from light, washed and finally, the coverlips were mounted with ProLong Gold Antifade Mountant (ThermoFisher). Immunolabeling was acquired using an inverted DM14 microscope equipped with DFC350×CCDcamera and LAS-X software (all from Leica Microsystems, Wetzlar, Germany). […] S1 PR1 levels are increased in pro-tumoral and pro-angiogenic conditions, when intracellular and extracellular levels of S1 P are presented. It is possible therefore to hypothesize the use of the anti-EPO (C4) antibody, such as in direct intra-articular treatment in the form of gel or suspension, in association or not with “coagulation factors and their derivatives” and also comprising FTY720 and negative modulators of the sphingosine-1-phosphate pathway.
molecule,measurement,setting,value
"anti-EPO (C4): isolated anti-Erythropoietin monoclonal antibody, VL SEQ ID NO:6, VH SEQ ID NO:14, hybridoma DSM ACC 3370 (antibody, listed as Homo sapiens, V domains shown, VH amino acid sequence; VL amino acid sequence) VH: EVKLQESGGGLVQPGGSLKLSCAASGFTFSTYTMSWVRQTPEKRLEWVAYISNGGDRTYYPDTVKGRFTISRDDAKNTLFLQMSSLKSEDTAMYYCARHNITTVPFTMDYWGQGTSVTVSS VL: DIVLTQSPASLAVSLGQRATISCRASESVDYYGTGLMQWYQQRPGQPPKLLIYGASNVGSGVPARFSGSGSGTDFSLNIHPVEGDDIAMYFCQQTRKVPSTFGGGTKLEIK",viability,[1],higher than 85%
same,cells initially seeded dead,[2],~66%
same,neutralizing activity (inhibition of cancer cell viability),[3],higher neutralizing activity
same,cells initially plated dead,[4],62%
same,morphology of microglia,[5],recover or maintain a branched morphology
same,S1PR1 expression levels,[6],decreased expression levels of S1 PR1

# Source: US20240294624A1, “ANTI-ERYTHROPOIETIN ANTIBODY” (ANDREMACON S.R.L., priority 2021, published 2024)
